Experiments:
Assay in all cases: cell-based or functional assay
[1] = biological target: human TSHR, wild type, expressed on CHO cells (human) (UniProt P16473)
[2] = biological target: TSHR with Glu61 mutated to Alanine expressed on CHO cells (human) (UniProt P16473)
[3] = biological target: wild type human TSHR (thyrotropin receptor) expressed on CHO cells (human) (UniProt P16473)

B1: 5C9 IgG (human monoclonal autoantibody to the TSHR) (antibody, from another filing, V domains shown)
VH: EVQLVESGGGLIQPGGSLRLSCAASGFTVSSNYMSWVRQAPGKGLEWVSVTYSGGSTSYADSVKGRFTISRDNSKNTLYLQMNSLRAEDTAVYYCARGGRYCSSISCYARSGCDYWGQGTLVTVSS
VL: AIQMTQSPSSLSASVGDRVTITCRASQSISNYLNWYQQKPGKAPKLLIYAASSLQSGVPSRFSGSGSGTDFTLTISSLQPEDFATYYCQQSYSSPSTTFGQGTKLEIK
- % inhibition of basal cyclic AMP production; Exp 2; 5C9 IgG 0.001 µg/mL [1]: 10.8%
- % inhibition of basal cyclic AMP production; Exp 2; 5C9 IgG 0.01 µg/mL [1]: 37.2%
- % inhibition of basal cyclic AMP production; Exp 2; 5C9 IgG 0.1 µg/mL [1]: 45.7%
- % inhibition of basal cyclic AMP production; Exp 2; 5C9 IgG 1 µg/mL [1]: 71%
- % inhibition of basal cyclic AMP production; Exp 2; 5C9 IgG 10 µg/mL [1]: 74.6%
- % inhibition of basal cyclic AMP production; Exp 2; 5C9 IgG 100 µg/mL [1]: 54.9%
- % inhibition of basal cyclic AMP production; Exp 3; 5C9 IgG 0.1 µg/mL [1]: 1%
- % inhibition of basal cyclic AMP production; Exp 3; 5C9 IgG 1 µg/mL [1]: 61%
- % inhibition of basal cyclic AMP production; Exp 3; 5C9 IgG 10 µg/mL [1]: 59%
- % inhibition of basal cyclic AMP production; Exp 3; 5C9 IgG 100 µg/mL [1]: 56%
- cyclic AMP; Exp 1; 5C9 1 µg/mL + TSH 3 ng/mL [1]: 13.9 pmol/mL
- cyclic AMP; Exp 1; 5C9 10 µg/mL + TSH 3 ng/mL [1]: 3.7 pmol/mL
- cyclic AMP; Exp 1; 5C9 10 µg/mL only [1]: 0.45 pmol/mL
- cyclic AMP; Exp 1; native human TSH 100 ng/mL + 5C9 IgG 0.001 µg/mL [1]: 36 pmol/mL
- cyclic AMP; Exp 1; native human TSH 100 ng/mL + 5C9 IgG 0.01 µg/mL [1]: 18 pmol/mL
- cyclic AMP; Exp 1; native human TSH 100 ng/mL + 5C9 IgG 0.1 µg/mL [1]: 0.2 pmol/mL
- cyclic AMP; Exp 1; native human TSH 100 ng/mL + 5C9 IgG 1.0 µg/mL [1]: 0.14 pmol/mL
- cyclic AMP; Exp 1; native human TSH 100 ng/mL + 5C9 IgG 10 µg/mL [1]: 0.11 pmol/mL
- cyclic AMP; Exp 1; native human TSH 100 ng/mL + 5C9 IgG 100 µg/mL [1]: 0.16 pmol/mL
- cyclic AMP; Exp 1; recombinant human TSH 100 ng/mL + 5C9 IgG 0.001 µg/mL [1]: 13.6 pmol/mL
- cyclic AMP; Exp 1; recombinant human TSH 100 ng/mL + 5C9 IgG 0.01 µg/mL [1]: 8.13 pmol/mL
- cyclic AMP; Exp 1; recombinant human TSH 100 ng/mL + 5C9 IgG 0.1 µg/mL [1]: 0.12 pmol/mL
- cyclic AMP; Exp 1; recombinant human TSH 100 ng/mL + 5C9 IgG 1.0 µg/mL [1]: 0.1 pmol/mL
- cyclic AMP; Exp 1; recombinant human TSH 100 ng/mL + 5C9 IgG 10 µg/mL [1]: 0.12 pmol/mL
- cyclic AMP; Exp 1; recombinant human TSH 100 ng/mL + 5C9 IgG 100 µg/mL [1]: 0.19 pmol/mL
- cyclic AMP; Exp 2; 5C9 1 µg/mL + TSH 3 ng/mL [1]: 6.1 pmol/mL
- cyclic AMP; Exp 2; 5C9 10 µg/mL + TSH 3 ng/mL [1]: 3.1 pmol/mL
- cyclic AMP; Exp 2; 5C9 10 µg/mL only [1]: 0.4 pmol/mL
- cyclic AMP; Exp 2; native human TSH 100 ng/mL + 5C9 IgG 0.001 µg/mL [1]: 37.6 pmol/mL
- cyclic AMP; Exp 2; native human TSH 100 ng/mL + 5C9 IgG 0.01 µg/mL [1]: 34.4 pmol/mL
- cyclic AMP; Exp 2; native human TSH 100 ng/mL + 5C9 IgG 0.1 µg/mL [1]: 15.8 pmol/mL
- cyclic AMP; Exp 2; native human TSH 100 ng/mL + 5C9 IgG 1.0 µg/mL [1]: 0.13 pmol/mL
- cyclic AMP; Exp 2; native human TSH 100 ng/mL + 5C9 IgG 10 µg/mL [1]: 0.18 pmol/mL
- cyclic AMP; Exp 2; native human TSH 100 ng/mL + 5C9 IgG 100 µg/mL [1]: 0.21 pmol/mL
- cyclic AMP; Exp 2; native porcine TSH 0.3 ng/mL + 5C9 IgG 0.001 µg/mL [1]: 32.7 pmol/mL
- cyclic AMP; Exp 2; native porcine TSH 0.3 ng/mL + 5C9 IgG 0.01 µg/mL [1]: 28.2 pmol/mL
- cyclic AMP; Exp 2; native porcine TSH 0.3 ng/mL + 5C9 IgG 0.1 µg/mL [1]: 18 pmol/mL
- cyclic AMP; Exp 2; native porcine TSH 0.3 ng/mL + 5C9 IgG 1.0 µg/mL [1]: 2.14 pmol/mL
- cyclic AMP; Exp 2; native porcine TSH 0.3 ng/mL + 5C9 IgG 10 µg/mL [1]: 0.2 pmol/mL
- cyclic AMP; Exp 2; native porcine TSH 0.3 ng/mL + 5C9 IgG 100 µg/mL [1]: 0.18 pmol/mL
- cyclic AMP; Exp 2; recombinant human TSH 100 ng/mL + 5C9 IgG 0.001 µg/mL [1]: 20 pmol/mL
- cyclic AMP; Exp 2; recombinant human TSH 100 ng/mL + 5C9 IgG 0.01 µg/mL [1]: 20.6 pmol/mL
- cyclic AMP; Exp 2; recombinant human TSH 100 ng/mL + 5C9 IgG 0.1 µg/mL [1]: 7.39 pmol/mL
- cyclic AMP; Exp 2; recombinant human TSH 100 ng/mL + 5C9 IgG 1.0 µg/mL [1]: 0.07 pmol/mL
- cyclic AMP; Exp 2; recombinant human TSH 100 ng/mL + 5C9 IgG 10 µg/mL [1]: 0.07 pmol/mL
- cyclic AMP; Exp 2; recombinant human TSH 100 ng/mL + 5C9 IgG 100 µg/mL [1]: 0.11 pmol/mL
- cyclic AMP; Exp 3; 5C9 0.01 µg/mL + TSH 3 ng/mL [1]: 33.9 pmol/mL
- cyclic AMP; Exp 3; 5C9 0.1 µg/mL + TSH 3 ng/mL [1]: 18.7 pmol/mL
- cyclic AMP; Exp 3; 5C9 1 µg/mL + TSH 3 ng/mL [1]: 5.4 pmol/mL
- cyclic AMP; Exp 3; 5C9 10 µg/mL + TSH 3 ng/mL [1]: 1.9 pmol/mL
- cyclic AMP; Exp 3; 5C9 100 µg/mL + TSH 3 ng/mL [1]: 1.4 pmol/mL
- cyclic AMP; Exp 3; 5C9 100 µg/mL only [1]: 0.5 pmol/mL
- cyclic AMP; Exp 3; native human TSH 100 ng/mL + 5C9 IgG 0.001 µg/mL [1]: 36 pmol/mL
- cyclic AMP; Exp 3; native human TSH 100 ng/mL + 5C9 IgG 0.01 µg/mL [1]: 28.4 pmol/mL
- cyclic AMP; Exp 3; native human TSH 100 ng/mL + 5C9 IgG 0.1 µg/mL [1]: 7.22 pmol/mL
- cyclic AMP; Exp 3; native human TSH 100 ng/mL + 5C9 IgG 1.0 µg/mL [1]: 0.67 pmol/mL
- cyclic AMP; Exp 3; native human TSH 100 ng/mL + 5C9 IgG 10 µg/mL [1]: 0.8 pmol/mL
- cyclic AMP; Exp 3; native human TSH 100 ng/mL + 5C9 IgG 100 µg/mL [1]: 1.35 pmol/mL
- cyclic AMP; Exp 3; native porcine TSH 0.3 ng/mL + 5C9 IgG 0.001 µg/mL [1]: 38.2 pmol/mL
- cyclic AMP; Exp 3; native porcine TSH 0.3 ng/mL + 5C9 IgG 0.01 µg/mL [1]: 26.6 pmol/mL
- cyclic AMP; Exp 3; native porcine TSH 0.3 ng/mL + 5C9 IgG 0.1 µg/mL [1]: 10.1 pmol/mL
- cyclic AMP; Exp 3; native porcine TSH 0.3 ng/mL + 5C9 IgG 1.0 µg/mL [1]: 2.28 pmol/mL
- cyclic AMP; Exp 3; native porcine TSH 0.3 ng/mL + 5C9 IgG 10 µg/mL [1]: 0.68 pmol/mL
- cyclic AMP; Exp 3; native porcine TSH 0.3 ng/mL + 5C9 IgG 100 µg/mL [1]: 1.03 pmol/mL
- cyclic AMP; Exp 3; recombinant human TSH 100 ng/mL + 5C9 IgG 0.001 µg/mL [1]: 25.6 pmol/mL
- cyclic AMP; Exp 3; recombinant human TSH 100 ng/mL + 5C9 IgG 0.01 µg/mL [1]: 22.9 pmol/mL
- cyclic AMP; Exp 3; recombinant human TSH 100 ng/mL + 5C9 IgG 0.1 µg/mL [1]: 1.18 pmol/mL
- cyclic AMP; Exp 3; recombinant human TSH 100 ng/mL + 5C9 IgG 1.0 µg/mL [1]: 0.81 pmol/mL
- cyclic AMP; Exp 3; recombinant human TSH 100 ng/mL + 5C9 IgG 10 µg/mL [1]: 0.74 pmol/mL
- cyclic AMP; Exp 3; recombinant human TSH 100 ng/mL + 5C9 IgG 100 µg/mL [1]: 0.88 pmol/mL
- cyclic AMP; Exp 4; 5C9 0.1 µg/mL + TSH 0.3 ng/mL [1]: 6.2 pmol/mL
- cyclic AMP; Exp 4; 5C9 1 µg/mL + TSH 0.3 ng/mL [1]: 1.65 pmol/mL
- cyclic AMP; Exp 4; 5C9 10 µg/mL + TSH 0.3 ng/mL [1]: 0.23 pmol/mL
- cyclic AMP; Exp 4; 5C9 100 µg/mL + TSH 0.3 ng/mL [1]: 0.29 pmol/mL
- cyclic AMP; Exp 4; 5C9 100 µg/mL only [1]: 0.15 pmol/mL
- cyclic AMP; Exp 5; 5C9 0.1 µg/mL + TSH 0.3 ng/mL [1]: 12.4 pmol/mL
- cyclic AMP; Exp 5; 5C9 1 µg/mL + TSH 0.3 ng/mL [1]: 2.57 pmol/mL
- cyclic AMP; Exp 5; 5C9 5 µg/mL + TSH 0.3 ng/mL [1]: 1.21 pmol/mL
- cyclic AMP; Exp 5; 5C9 10 µg/mL + TSH 0.3 ng/mL [1]: 1.17 pmol/mL
- cyclic AMP; Exp 5; 5C9 10 µg/mL only [1]: 0.38 pmol/mL
- cyclic AMP; TSMAb 1 1 µg/mL + 5C9 IgG 100 µg/mL [1]: 1.24 pmol/mL
- cyclic AMP; TSMAb 2 1 µg/mL + 5C9 IgG 100 µg/mL [1]: 2.26 pmol/mL
- cyclic AMP; TSMAb 4 10 ng/mL + 5C9 IgG 100 µg/mL [1]: 2.2 pmol/mL
- cyclic AMP; TSMAb 5 100 ng/mL + 5C9 IgG 100 µg/mL [1]: 0.85 pmol/mL
- cyclic AMP; TSMAb 7 100 ng/mL + 5C9 IgG 100 µg/mL [1]: 1.26 pmol/mL
- Cyclic AMP produced; 5C9 0.01 µg/mL + TSH (fmol/cell well) [2]: 18000
- Cyclic AMP produced; 5C9 0.1 µg/mL + TSH (fmol/cell well) [2]: 2110
- Cyclic AMP produced; 5C9 1.0 µg/mL + TSH (fmol/cell well) [2]: 766
- Cyclic AMP produced; 5C9 10 µg/mL + TSH (fmol/cell well) [2]: 346
- Cyclic AMP produced; 5C9 100 µg/mL + TSH (fmol/cell well) [2]: 328
- Cyclic AMP produced; 5C9 100 µg/mL only (fmol/cell well) [2]: 254
- Mutated/wild type (%); 5C9 0.01 µg/mL + TSH [2]: 131%
- Mutated/wild type (%); 5C9 0.1 µg/mL + TSH [2]: 73%
- Mutated/wild type (%); 5C9 1.0 µg/mL + TSH [2]: 143%
- Mutated/wild type (%); 5C9 10 µg/mL + TSH [2]: 136%
- Mutated/wild type (%); 5C9 100 µg/mL + TSH [2]: 162%
- Mutated/wild type (%); 5C9 100 µg/mL only [2]: 117%
- Cyclic AMP produced; 5C9 0.01 µg/mL + TSH (fmol/cell well) [3]: 13800
- Cyclic AMP produced; 5C9 0.1 µg/mL + TSH (fmol/cell well) [3]: 2890
- Cyclic AMP produced; 5C9 1.0 µg/mL + TSH (fmol/cell well) [3]: 536
- Cyclic AMP produced; 5C9 10 µg/mL + TSH (fmol/cell well) [3]: 254
- Cyclic AMP produced; 5C9 100 µg/mL + TSH (fmol/cell well) [3]: 202
- Cyclic AMP produced; 5C9 100 µg/mL only (fmol/cell well) [3]: 218
